Data on one substance can be found in patent US20260103513A1.

Assay [1] concerns the target Cynomolgus monkey TIGIT-His tag fusion protein (cynomolgus monkey). Nature of the assay: ELISA, cynomolgus TIGIT-His coated, HRP anti-human IgG, OD450. For orientation: An ELISA detects its analyte on a solid surface through an enzyme-linked reagent.
Assay [2] has as its target TIGIT protein overexpressed on cells (Homo sapiens (Human)) (UniProt Q495A1). As to the kind of experiment: flow cytometry on 293T-TIGIT cells, Alexa-647 anti-human Fc, MFI. Background: Flow cytometry measures light scatter and fluorescence of single cells or particles in a stream.

Cynomolgus monkey TIGIT-His tag fusion protein (cynomolgus monkey), sequence (chain, as listed by the source): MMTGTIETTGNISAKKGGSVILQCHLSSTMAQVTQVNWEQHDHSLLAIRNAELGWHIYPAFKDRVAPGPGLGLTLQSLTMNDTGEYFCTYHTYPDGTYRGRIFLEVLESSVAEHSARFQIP
TIGIT protein overexpressed on cells (Homo sapiens (Human)), sequence (Q495A1 22-244): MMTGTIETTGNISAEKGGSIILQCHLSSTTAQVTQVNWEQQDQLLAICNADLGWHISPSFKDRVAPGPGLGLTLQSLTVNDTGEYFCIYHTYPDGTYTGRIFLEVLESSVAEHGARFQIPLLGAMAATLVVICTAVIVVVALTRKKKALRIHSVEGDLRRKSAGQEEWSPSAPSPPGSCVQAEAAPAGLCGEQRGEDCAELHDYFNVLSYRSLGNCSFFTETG

As a reminder, the EC50 (read off the curve) is the concentration needed to bring the measured effect to its halfway point. Turning to Tiragolumab analog (antibody), the EC50 (read off the curve) in assay [1] came to 0.08 mg/L; in assay [2], 0.4 mg/L.
